From patent US20110081661A1, “Modified photoproteins with increased affinity for calcium and enhanced bioluminescence and uses thereof” (Millipore Corporation, priority 2009, published 2011)

Key:
Format in all cases: cell-based
[1] = Calcium EC50 of mitochondrially targeted photoproteins in HEK293T cells without cotransfected GPCR or G protein (Table II); details: no cotransfected GPCR or G protein
Text: (§1) In an exemplary experiment, HEK293T cells (ATCC-CRL-11268) were transiently co-transfected with 2 μgs of each of pcDNA3.1-H1 (containing the cDNA encoding the H1 histamine receptor) and pcDNA3.1 containing the cDNAs encoding wild type mitochondrial Clytin (referred to as mt-Clytin), modified mitochondrial Clytin having a lysine to aspartic acid mutation at position 168 (referred to as mt-Clytin K168D), modified mitochondrial Clytin having a lysine to glutamic acid mutation at position 168 (referred to as mt-Clytin K168E), wild-type mitochondrial Obelin (referred to as mt-Obelin) or wild type mitochondrial Aequorin (referred to as mt-Aequorin) using the Targefect-293 reagent (TARGETING SYSTEMS). 48 hours later, the cells were detached using Accutase (MILLIPORE), centrifuged, and resuspended in […] in FreeStyle293 media (INVITROGEN), for incubation for 3-4 hours at room temperature in the dark. After incubation, the cells were centrifuged and resuspended in HBSS/HEPES buffer without Ca^2+ at a density of 1×10^6 cells/ml. Next, 100 μl/well of cell suspension for each transfection were added by the use of a Victor2 luminometer plate reader (WALLAC, […]), to a 96-well plate containing 50 μL/well Triton X-100 in MOPS/KCl buffer containing 10 mM EGTA and a series of Ca^2+ concentrations, such that free calcium concentrations ranged from 17 nM to 39.6 μM, followed by for measurement of total bioluminescence at 20 seconds.
(§2) Signal to background ratio was calculated as the signal induced by maximal GIP (1 μM) divided by the signal induced by buffer alone. The EC50 value for calcium was determined as described above for FIG. 2 for mitochondrially targeted photoproteins transfected into HEK293T cells in the absence of a cotransfected GPCR or G protein. Affinity for calcium was correlated with the properties of the amino acid side chain at residue 168 of Clytin.

[2] = Calcium affinity of mitochondrial photoproteins, transient co-transfection with H1 histamine receptor in HEK293T cells (FIG. 2); details: HEK293T cells co-transfected with H1 histamine receptor; Triton X-100, free calcium 17 nM to 39.6 μM; total bioluminescence at 20 seconds; read-out: EC50 value (affinity for Ca^2+)
Text: Following the generation of modified forms of Clytin, the various variants were compared with wt-Aequorin for their affinity for intracellular calcium in transient transfection assays using co-transfection with the H1 histamine receptor (Genbank Accession No. NM_000861, obtained by PCR using H1-specific primers from a human brain cDNA library, forward primer 5′-[…] ATTCCTC-3′ (SEQ ID NO:60), reverse primer 5′-[…] AATTCTC-3′ (SEQ ID NO:61).
as §1

H1 histamine receptor = biological target: T1, H1 histamine receptor (Homo sapiens, UniProt P35367); assay: GPCR-mediated versus total bioluminescence in U-2OS cells (FIG. 4); details: 10 μM histamine vs Triton X-100 with 1 mM calcium
T1 construct: expressed in transfected cells; host or cells: U-2OS
Procedure: In another experiment, the ability of the various photoproteins to detect calcium flux in live cells was assessed by adding varying concentrations of histamine to cells in order to activate the H1 histamine receptor followed by measurement of bioluminescence of the various photoproteins. U-2OS cells were transfected with a cDNA encoding H1 histamine receptor along with a cDNA encoding either a wild-type photoprotein or a modified photoprotein according to the invention, as described above in Example 2, except that Lipofectamine-2000 (INVITROGEN) was used as the transfection reagent. On the second day, the cells were trypsinized, counted, and plated in a white tissue-culture treated 96-well plate (COSTAR) at a density of about 50,000 cells/well in growth media consisting of DMEM containing 10% fetal bovine serum, non-essential amino acids, HEPES and penicillin/streptomycin. On the third day, the medium was removed and cells were washed once with 200 μl/well of HBSS/HEPES (containing Ca^2+). Cells were subsequently incubated with 5 μM coelenterazine in HBSS/HEPES (containing Ca^2+) in a volume of 200 μl/well, for 3-4 hours at room temperature in the dark. After incubation, the coelenterazine solution was removed and cells were washed and replaced with HBSS/HEPES buffer containing both Ca^2+ and Mg^2+. 50 μl/well of histamine at varying concentrations in HBSS/HEPES containing both Ca^2+ and Mg^2+ was added to the cells and total bioluminescence was measured at 20 seconds using a Victor2 luminometer.
In an exemplary experiment, U-2OS cells were transfected, plated and loaded with coelenterazine as described in Example 3. Luminescence induced by buffer alone or by 10 μM histamine was measured also as described in Example 3. Additionally, luminescence induced by addition of Triton X-100 in the presence of 1 mM calcium was also determined in order to assess the total amount of active photoprotein detectable using saturating calcium concentrations in cells.

GIP Receptor = biological target: T2, GIP Receptor (Homo sapiens, UniProt P48546); assay: GIP receptor-mediated bioluminescence in HEK293T cells with chimeric promiscuous G protein (FIG. 5, Table II); details: for % GPCR/total: signal induced by maximal GIP (1 μM) as percentage of signal induced by Triton X-100 with 1 mM Ca^2+; for Signal: background with GIP: signal induced by maximal GIP (1 μM) divided by signal induced by buffer alone
T2 construct: host or cells: HEK293T
T2 sequence (P48546 22-466): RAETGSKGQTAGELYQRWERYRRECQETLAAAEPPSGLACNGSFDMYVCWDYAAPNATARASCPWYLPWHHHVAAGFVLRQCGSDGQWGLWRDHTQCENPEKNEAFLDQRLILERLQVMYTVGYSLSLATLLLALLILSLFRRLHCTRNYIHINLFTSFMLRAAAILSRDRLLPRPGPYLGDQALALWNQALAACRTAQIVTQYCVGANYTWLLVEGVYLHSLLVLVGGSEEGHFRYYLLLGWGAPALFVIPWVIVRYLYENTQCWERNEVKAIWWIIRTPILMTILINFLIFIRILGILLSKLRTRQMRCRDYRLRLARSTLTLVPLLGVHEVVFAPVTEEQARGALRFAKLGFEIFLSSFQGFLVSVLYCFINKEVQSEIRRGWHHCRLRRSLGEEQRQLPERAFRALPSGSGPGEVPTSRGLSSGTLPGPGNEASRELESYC
Procedure: However, coexpression of GIP receptor with a chimeric G protein containing sequences from Gαs and Gαq enable the GIP receptor to stimulate calcium flux.
The results of the dose response curve to varying concentrations of GIP with a subset of the photoproteins are summarized in FIG. 5.
as §2
The EC50 value for receptor-mediated calcium flux induced by the ligand was determined by plotting luminescence (Y-axis) versus ligand concentration applied to the cells (X-axis), and applying a sigmoidal dose-response curve-fitting algorithm (GraphPad Prism). GPCR-mediated signals of the various modified forms of Clytin having an amino acid substitution at position 168 were also related to the nature of the side chain. In addition, the subcellular location of the photoproteins (cytosolic vs mitochondrial) appeared to have an effect on GPCR-mediated signals. […] All of the other mitochondrially targeted mutants except for Clytin K168R and wild-type Clytin yielded results that were in the range of those observed for wt-Aequorin.

[3] = HEK293T cells, GIP Receptor + promiscuous G protein
[4] = HEK293T cells, GIP Receptor + promiscuous G protein, luminescence vs GIP concentration

T1 sequence (P35367 whole entry): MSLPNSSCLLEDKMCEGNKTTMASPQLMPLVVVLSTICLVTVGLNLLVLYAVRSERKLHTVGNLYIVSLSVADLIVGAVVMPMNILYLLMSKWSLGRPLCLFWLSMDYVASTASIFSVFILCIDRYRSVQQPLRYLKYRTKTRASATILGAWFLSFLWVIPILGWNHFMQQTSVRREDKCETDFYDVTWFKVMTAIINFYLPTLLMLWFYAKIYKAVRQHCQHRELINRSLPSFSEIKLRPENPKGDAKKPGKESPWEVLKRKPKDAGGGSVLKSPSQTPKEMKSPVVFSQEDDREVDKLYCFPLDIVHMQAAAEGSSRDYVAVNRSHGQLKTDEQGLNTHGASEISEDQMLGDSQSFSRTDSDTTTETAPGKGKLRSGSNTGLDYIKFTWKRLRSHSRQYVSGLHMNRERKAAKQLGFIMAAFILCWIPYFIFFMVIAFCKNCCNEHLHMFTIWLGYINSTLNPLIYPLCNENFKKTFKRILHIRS

| Molecule | EC50 [1] [nM] | EC50 [2] [nM] | GPCR-mediated signal as % of the total signal (H1 histamine receptor) | signal intensities, GIP dose response (FIG. 5) (GIP Receptor; HEK293T cells, GIP 10^−11 to 10^−6 M) | Max signal with GIP (RLU × 10^−5) (GIP Receptor; [3]) | Max signal with GIP (RLU × 10^−5) (GIP Receptor; HEK293T cells, GIP Receptor + promiscuous G protein, listed as mt-Clytin K168D) | EC50 (GIP Receptor; [4]) [nM] | EC50 for GIP (nM) (GIP Receptor; [4]) | % GPCR/total (GIP Receptor) [%] | % GPCR/total (GIP Receptor; listed as mt-Clytin K168D) | Signal: background with GIP (GIP Receptor) | Signal: background with GIP (GIP Receptor; listed as mt-Clytin K168D) |
| --- | --- | --- | --- | --- | --- | --- | --- | --- | --- | --- | --- | --- |
| Mt-clytin K168D: Mitochondrial K168D modified Clytin, SEQ ID NO:10 (protein) MSVLTPLLLRGLTGSARRLPVPRAKIHSLPPEGKLRPNFDNPKWVNRHKFMFNFLDINGDGKITLDEIVSKASDDICAKLGATPEQTKRHQDAVEAFFKKIGMDYGKEVEFPAFVDGWKELANYDLKLWSQNKKSLIRDWGEAVFDIFDKDGSGSISLDEWKAYGRISGICSSDEDAEKTFKHCDLDNSGDLDVDEMTRQHLGFWYTLDPNADGLYGNFVP | 160 | 129 | ~100% | significantly higher signal intensities than any of the wild-type photoproteins | 7.90 | maximal signal | 9.1 | lowest EC50 | 34.4 | highest % GPCR/total | 188.2 | highest signal to background ratio |
| Mt-clytin wt: Mitochondrial Wild-type Clytin (mt-Clytin), SEQ ID NO:5, with COX8 mitochondrial leader sequence (protein, listed as Clytia gregaria) MSVLTPLLLRGLTGSARRLPVPRAKIHSLPPEGKLRPNFDNPKWVNRHKFMFNFLDINGDGKITLDEIVSKASDDICAKLGATPEQTKRHQDAVEAFFKKIGMDYGKEVEFPAFVDGWKELANYDLKLWSQNKKSLIRDWGEAVFDIFDKDGSGSISLDEWKAYGRISGICSSDEDAEKTFKHCDLDNSGKLDVDEMTRQHLGFWYTLDPNADGLYGNFVP | 545 | 1350 | about 30% | – | 3.14 | – | 12.9 | – | 6.8 | – | 146.5 | – |
| Mt-clytin K168E: Mitochondrial K168E modified Clytin, SEQ ID NO:12 (protein) MSVLTPLLLRGLTGSARRLPVPRAKIHSLPPEGKLRPNFDNPKWVNRHKFMFNFLDINGDGKITLDEIVSKASDDICAKLGATPEQTKRHQDAVEAFFKKIGMDYGKEVEFPAFVDGWKELANYDLKLWSQNKKSLIRDWGEAVFDIFDKDGSGSISLDEWKAYGRISGICSSDEDAEKTFKHCDLDNSGELDVDEMTRQHLGFWYTLDPNADGLYGNFVP | 176 | 173 | – | – | 6.07 | – | 21.6 | – | 19.8 | – | 120.8 | – |
| Mt-aequorin: Mitochondrial Wild-type Aequorin (mt-Aequorin), SEQ ID NO:6 (protein, listed as Aequorea victoria) MSVLTPLLLRGLTGSARRLPVPRAKIHSLPPEGKLTSDFDNPRWIGRHKHMFNFLDVNHNGKISLDEMVYKASDIVINNLGATPEQAKRHKDAVEAFFGGAGMKYGVETDWPAYIEGWKKLATDELEKYAKNEPTLIRIWGDALFDIVDKDQNGAITLDEWKAYTKAAGIIQSSEDCEETFRVCDIDESGQLDVDEMTRQHLGFWYTMDPACEKLYGGAVP | 235 | 269 | about 70% | – | 4.68 | – | 11.3 | – | 23.9 | – | 84.7 | – |
